Read-outs that look alike come from different tables or passages of the source.
Legend:
Test in all cases: SPR, steady state
human IL-2Rβ (human) [1] = biological target: human IL-2Rβ (human) (UniProt P14784)
human IL-2Rβ (human) [2] = biological target: human IL-2Rβ (human) (UniProt P14784); remark: listed apart in the source
human IL-15Rα (human) = human IL-15Rα (human) (UniProt Q13261)
human IL-15Rα (human), sequence (Q13261 31-205 limits assumed): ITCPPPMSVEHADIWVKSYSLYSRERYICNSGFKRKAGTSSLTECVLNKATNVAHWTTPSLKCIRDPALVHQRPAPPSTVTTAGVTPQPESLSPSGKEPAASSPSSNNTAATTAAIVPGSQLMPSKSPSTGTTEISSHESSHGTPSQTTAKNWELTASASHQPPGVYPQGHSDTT

human IL-2Rβ (human), sequence (P14784 27-240 limits assumed): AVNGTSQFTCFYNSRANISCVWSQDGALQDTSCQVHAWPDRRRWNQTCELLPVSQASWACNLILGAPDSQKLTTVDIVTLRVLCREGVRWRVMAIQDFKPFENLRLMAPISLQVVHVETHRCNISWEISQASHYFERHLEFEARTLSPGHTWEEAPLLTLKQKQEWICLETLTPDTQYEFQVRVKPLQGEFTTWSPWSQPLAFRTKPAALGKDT

Row | Kd (human IL-2Rβ (human) [1]) [nM] | Kd (human IL-2Rβ (human) [2]) [nM] | Kd (human IL-15Rα (human)) [nM] | Substance
1 | 69.6 | 54.4 |  | IL-15Rasu-IL-15 (non-fusion, wild-type) (from UniProt Q13261 31-95)
2 |  | > 500 | 130 | hIL-15 V49R/E64 N/S (ligand)
